{
  "source": "patent US20250243243A1",
  "about": "(HONG KONG UNIVERSITY OF SCIENCE AND TECHNOLOGY, published 2025)",
  "binders": {"B1": {"name": "SURF4 luminal peptides (SEQRDYIDTTWNC) (peptide)", "peptide": "SEQRDYIDTTWNC", "modifications": "not fully specified (residue 13)", "notes": "Immobilised on beads as bait; also called SURF4^49-61 peptides; SURF4 peptide"}, "B2": {"name": "SURF4^ED-AA-Myc (receptor)", "chain": "GQNDLMGTAEDFADQFLRVTKQYLPHVARLCLISTFLEDGIRMWFQWSAQRAYIATTWNCGYLLASSFVFLNLLGQLTGCVLVLSRNFVQYACFGLFGIIALQTIAYSILWDLKFLMRNLALGGGLLLLLAESRSEGKSMFAGVPTMRESSPKQYMQLGGRVLLVLMFMTLLHFDASFFSIVQNIVGTALMILVAIGFKTKLAALTLVVWLFAINVYFNAFWTIPVYKPMHDFLKYDFFQTMSVIGGLLLVVALGPGGVSMDEKKKEW", "notes": "SURF4-3xMyc with E50, D53 and D56 changed to alanine; also called Myc-tagged SURF4^ED-AA; not shown: C-terminal 3xMyc tag"}, "B3": {"name": "GST-SURF4^49-60 (other)", "chain": "{GST}-SEQRDYIDTTWN", "modifications": "also: GST tag linker not given here", "notes": "Purified from E. coli; also called N-terminal GST-tagged SURF4^49-60; GST-tagged SURF4^49-60; not shown: glutathione S-transferase (GST) tag, N-terminal"}},
  "key": {"GST": {"target": "T1, GST (UniProt P08515 1-218 = GST)", "T1 construct": "Control protein purified from E. coli; also called GST alone; purified GST", "T1 sequence (P08515 whole entry)": "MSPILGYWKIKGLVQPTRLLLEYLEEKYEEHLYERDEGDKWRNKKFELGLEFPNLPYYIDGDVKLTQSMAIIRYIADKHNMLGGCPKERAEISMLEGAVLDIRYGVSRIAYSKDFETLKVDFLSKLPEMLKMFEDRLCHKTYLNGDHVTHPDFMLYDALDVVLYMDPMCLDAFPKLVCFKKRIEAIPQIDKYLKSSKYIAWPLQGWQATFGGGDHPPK", "experiment": "pull-down on beads carrying peptides of the predicted first luminal loop of SURF4, purified prey, anti-GST immunoblot"}, "ShhN^1-198-HA": {"target": "T2, ShhN^1-198-HA (mouse, UniProt Q62226 25-198)", "T2 construct": "also called ShhN-HA; not shown: C-terminal 3xHA tag", "T2 sequence (Q62226 25-198)": "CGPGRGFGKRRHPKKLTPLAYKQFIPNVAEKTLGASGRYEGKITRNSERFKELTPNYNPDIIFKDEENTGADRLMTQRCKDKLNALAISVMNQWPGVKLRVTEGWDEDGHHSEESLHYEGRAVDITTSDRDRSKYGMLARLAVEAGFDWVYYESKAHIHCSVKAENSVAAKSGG", "experiment": "quantification of the co-immunoprecipitation (n=3)", "source_text": "FIG. 3D. […] FIG. 3E. […] FIG. 3F. […] FIG. 3G. […] FIG. 3O."}, "CW peptides (KRRHPKKC)": {"target": "T3, CW peptides (KRRHPKKC) (C-terminal cysteine added for coupling to thiopyridone-Sepharose 6B beads (pull-down))", "T3 construct": "CW motif of Shh (mouse residues 33-39, human 32-38) plus an added C-terminal Cys; On beads in the pull-downs, free in solution in ITC; also called Cardin-Weintraub peptide; synthetic CW peptides", "T3 peptide": "KRRHPKKC", "experiment": "ITC, 500 µM CW peptide injected into 50 µM GST-SURF4 (49-60), one set of sites model", "protocol": "We utilized a commercial isothermal titration calorimeter (PEAQ-ITC system, MicroCal, Malvern Panalytical, United Kingdom) to perform titration experiments. […] During each ITC experiment, 19 injections of CW peptide into the calorimetric cell were carried out while duration of each injection was 4 s and the time between the injections was 150 s. The volume of each injection was 2 μL and the stirring speed was maintained at 750 rpm. Control experiments such as peptide to buffer and buffer to protein titrations were also done to account for non-specific interactions and heat of dilution. The binding constant (Kd) was derived by fitting the data with one set of site model using the MicroCal PEAQ-ITC analysis software."}},
  "note": "Where no end group is shown, it is not given here.",
  "data": [
    {"binder": "B1", "values": [
      {"measurement": "binding result", "setting": "GST", "value": "no binding"}
    ]},
    {"binder": "B2", "values": [
      {"measurement": "binding result", "setting": "ShhN^1-198-HA", "value": "binds"}
    ]},
    {"binder": "B3", "values": [
      {"measurement": "Kd", "setting": "CW peptides (KRRHPKKC)", "value": 2350, "unit": "nM"}
    ]}
  ]
}
